Assay results published in patent publication US20140072613A1, “Compositions and Methods for Treating Cutaneous Scarring” (priority 2012, published 2014).

Tests used:
Assay in all cases: cell-based or functional assay
[1] = biological target: ErbB4(h) (human) (UniProt Q15303)
[2] = biological target: Met(h) (human) (UniProt P08581)
[3] = biological target: CHK2(h) (human) (UniProt O96017)
[4] = biological target: JNK2α2(h) (human) (UniProt P45984)
[5] = biological target: T1, Flt3(D835Y)(h) (human) (UniProt P36888)
T1 sequence (looked up): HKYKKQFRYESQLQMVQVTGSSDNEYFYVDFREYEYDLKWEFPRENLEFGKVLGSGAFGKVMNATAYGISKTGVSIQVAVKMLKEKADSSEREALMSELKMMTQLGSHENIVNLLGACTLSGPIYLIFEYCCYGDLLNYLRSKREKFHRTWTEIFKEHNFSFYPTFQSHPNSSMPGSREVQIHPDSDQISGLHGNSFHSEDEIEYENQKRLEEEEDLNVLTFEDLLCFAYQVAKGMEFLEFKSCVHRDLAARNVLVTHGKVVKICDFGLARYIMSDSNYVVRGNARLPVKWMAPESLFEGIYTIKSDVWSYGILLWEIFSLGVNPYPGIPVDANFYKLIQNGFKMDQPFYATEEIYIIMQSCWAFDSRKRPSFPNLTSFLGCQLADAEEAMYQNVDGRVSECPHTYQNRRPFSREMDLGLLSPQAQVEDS

[6] = biological target: c-RAF(h) (human) (UniProt P04049)
[7] = biological target: HIPK3(h) (human) (UniProt Q9H422)
[8] = biological target: IRAK1(h) (human) (UniProt P51617)
[9] = biological target: CaMKIIγ(h) (human) (UniProt Q13555)
[10] = biological target: CLK3(h) (human) (UniProt P49761)
[11] = biological target: T2, LKB1(h) (human) (UniProt Q15831)
T2 sequence (looked up): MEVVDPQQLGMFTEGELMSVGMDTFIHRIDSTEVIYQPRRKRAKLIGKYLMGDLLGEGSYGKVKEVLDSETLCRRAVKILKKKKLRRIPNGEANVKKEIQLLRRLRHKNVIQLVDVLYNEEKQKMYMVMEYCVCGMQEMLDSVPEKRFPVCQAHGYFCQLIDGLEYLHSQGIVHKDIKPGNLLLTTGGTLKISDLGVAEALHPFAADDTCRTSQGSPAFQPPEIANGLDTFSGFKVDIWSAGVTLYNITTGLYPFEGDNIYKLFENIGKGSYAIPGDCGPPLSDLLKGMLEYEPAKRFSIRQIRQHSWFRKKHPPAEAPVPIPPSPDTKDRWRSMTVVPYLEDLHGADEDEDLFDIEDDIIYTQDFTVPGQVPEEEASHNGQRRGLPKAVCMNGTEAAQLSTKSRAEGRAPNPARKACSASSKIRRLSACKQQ

[12] = biological target: AMPKα1(h) (human) (UniProt Q13131)
[13] = biological target: T3, EphA3(h) (human) (UniProt P29320)
T3 sequence (looked up): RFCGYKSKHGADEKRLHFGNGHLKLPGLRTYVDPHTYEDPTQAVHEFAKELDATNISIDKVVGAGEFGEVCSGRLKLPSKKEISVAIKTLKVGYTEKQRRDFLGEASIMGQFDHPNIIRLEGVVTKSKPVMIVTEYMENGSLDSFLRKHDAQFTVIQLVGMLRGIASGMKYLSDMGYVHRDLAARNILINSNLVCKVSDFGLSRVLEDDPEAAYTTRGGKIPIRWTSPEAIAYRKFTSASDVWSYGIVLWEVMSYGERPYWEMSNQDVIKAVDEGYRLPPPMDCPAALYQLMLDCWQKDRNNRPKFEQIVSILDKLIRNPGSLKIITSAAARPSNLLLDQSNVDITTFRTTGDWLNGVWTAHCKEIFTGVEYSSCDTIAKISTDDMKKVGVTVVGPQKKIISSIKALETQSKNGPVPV

[14] = biological target: SAPK2a(h) (human) (UniProt Q16539)
[15] = biological target: cKit(V654A)(h) (human) (UniProt P10721)
[16] = biological target: JAK3(h) (human) (UniProt P52333)
[17] = biological target: Snk(h) (human) (UniProt Q9NYY3)
[18] = biological target: PKCε(h) (human) (UniProt Q02156)
[19] = biological target: IGF-1R(h), activated (human) (UniProt P08069)
[20] = biological target: Pim-2(h) (human) (UniProt Q9P1W9)
[21] = biological target: T4, Txk(h) (human) (UniProt P42681)
T4 sequence (looked up): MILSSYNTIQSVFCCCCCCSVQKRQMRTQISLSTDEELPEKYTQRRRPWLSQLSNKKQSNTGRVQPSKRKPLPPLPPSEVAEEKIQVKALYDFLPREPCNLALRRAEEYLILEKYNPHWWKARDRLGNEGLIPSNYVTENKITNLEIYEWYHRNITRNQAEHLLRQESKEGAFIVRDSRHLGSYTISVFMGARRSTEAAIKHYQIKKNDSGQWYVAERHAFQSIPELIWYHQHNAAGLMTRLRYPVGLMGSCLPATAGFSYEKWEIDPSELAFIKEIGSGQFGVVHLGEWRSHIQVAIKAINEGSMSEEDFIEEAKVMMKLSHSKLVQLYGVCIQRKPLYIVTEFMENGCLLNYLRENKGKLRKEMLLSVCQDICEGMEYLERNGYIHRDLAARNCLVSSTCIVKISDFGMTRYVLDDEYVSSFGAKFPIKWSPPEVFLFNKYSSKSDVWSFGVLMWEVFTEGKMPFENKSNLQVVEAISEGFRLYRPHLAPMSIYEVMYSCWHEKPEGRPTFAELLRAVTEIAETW

[22] = biological target: CaMKIIβ(h) (human) (UniProt Q13554)

Chain of CaMKIIγ(h) (human) (Q13555 whole entry): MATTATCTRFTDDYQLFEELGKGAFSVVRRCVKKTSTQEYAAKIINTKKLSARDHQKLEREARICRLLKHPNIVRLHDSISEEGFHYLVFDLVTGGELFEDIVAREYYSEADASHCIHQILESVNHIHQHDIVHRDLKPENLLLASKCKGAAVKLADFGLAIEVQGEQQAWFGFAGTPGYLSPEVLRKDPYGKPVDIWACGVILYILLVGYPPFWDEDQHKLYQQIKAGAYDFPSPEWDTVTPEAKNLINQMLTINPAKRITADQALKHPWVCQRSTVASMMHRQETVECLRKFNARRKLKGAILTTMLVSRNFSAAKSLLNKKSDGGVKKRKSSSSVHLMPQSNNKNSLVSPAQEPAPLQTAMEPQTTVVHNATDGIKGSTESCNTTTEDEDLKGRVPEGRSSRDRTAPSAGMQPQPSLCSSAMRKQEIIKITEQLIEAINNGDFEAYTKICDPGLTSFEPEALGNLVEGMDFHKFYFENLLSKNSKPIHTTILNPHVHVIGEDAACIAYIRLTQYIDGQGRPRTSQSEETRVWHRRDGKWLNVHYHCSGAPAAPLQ
Chain of PKCε(h) (human) (Q02156 whole entry): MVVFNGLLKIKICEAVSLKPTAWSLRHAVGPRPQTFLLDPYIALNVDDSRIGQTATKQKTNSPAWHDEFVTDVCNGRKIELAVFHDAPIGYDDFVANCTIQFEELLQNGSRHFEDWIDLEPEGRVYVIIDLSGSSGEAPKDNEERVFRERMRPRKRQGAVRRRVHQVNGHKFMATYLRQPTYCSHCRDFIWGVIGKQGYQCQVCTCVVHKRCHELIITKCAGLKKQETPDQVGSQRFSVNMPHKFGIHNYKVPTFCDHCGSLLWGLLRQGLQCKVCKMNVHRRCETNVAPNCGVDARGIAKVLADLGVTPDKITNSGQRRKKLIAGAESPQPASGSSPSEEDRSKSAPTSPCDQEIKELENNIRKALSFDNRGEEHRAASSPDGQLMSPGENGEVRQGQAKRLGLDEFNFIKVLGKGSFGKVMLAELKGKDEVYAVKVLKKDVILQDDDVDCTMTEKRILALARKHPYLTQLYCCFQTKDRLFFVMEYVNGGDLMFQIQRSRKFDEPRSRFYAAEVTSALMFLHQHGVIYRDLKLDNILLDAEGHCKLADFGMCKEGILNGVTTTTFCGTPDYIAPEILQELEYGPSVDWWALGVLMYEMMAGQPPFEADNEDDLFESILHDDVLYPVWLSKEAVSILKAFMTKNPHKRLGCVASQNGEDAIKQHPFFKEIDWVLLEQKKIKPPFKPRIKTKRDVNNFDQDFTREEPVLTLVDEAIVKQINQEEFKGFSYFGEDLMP
Chain of Met(h) (human) (P08581 956-1390 limits assumed): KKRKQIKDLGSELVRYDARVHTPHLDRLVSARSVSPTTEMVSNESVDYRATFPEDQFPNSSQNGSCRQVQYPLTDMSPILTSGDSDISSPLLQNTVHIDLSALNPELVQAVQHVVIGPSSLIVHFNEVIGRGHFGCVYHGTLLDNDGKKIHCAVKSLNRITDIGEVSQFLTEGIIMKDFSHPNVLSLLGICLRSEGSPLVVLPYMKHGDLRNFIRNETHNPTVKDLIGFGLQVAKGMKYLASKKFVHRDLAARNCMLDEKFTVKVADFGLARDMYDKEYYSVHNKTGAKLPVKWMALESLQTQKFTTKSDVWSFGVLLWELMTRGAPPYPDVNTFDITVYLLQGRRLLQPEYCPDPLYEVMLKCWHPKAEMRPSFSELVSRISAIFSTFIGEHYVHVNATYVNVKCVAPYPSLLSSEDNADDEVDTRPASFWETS
Chain of IGF-1R(h), activated (human) (P08069 959-1367 limits assumed): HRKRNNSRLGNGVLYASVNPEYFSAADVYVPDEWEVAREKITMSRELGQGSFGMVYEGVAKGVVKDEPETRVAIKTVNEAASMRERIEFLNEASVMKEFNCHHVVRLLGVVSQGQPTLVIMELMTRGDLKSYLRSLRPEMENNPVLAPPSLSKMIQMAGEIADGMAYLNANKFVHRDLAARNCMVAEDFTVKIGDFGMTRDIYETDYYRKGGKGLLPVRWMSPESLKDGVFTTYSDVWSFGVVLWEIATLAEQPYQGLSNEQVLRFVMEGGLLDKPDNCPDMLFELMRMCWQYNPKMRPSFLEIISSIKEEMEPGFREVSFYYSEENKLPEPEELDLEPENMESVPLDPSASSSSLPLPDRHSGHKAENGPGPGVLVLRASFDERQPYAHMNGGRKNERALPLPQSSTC
Chain of JAK3(h) (human) (P52333 781-1124 limits assumed): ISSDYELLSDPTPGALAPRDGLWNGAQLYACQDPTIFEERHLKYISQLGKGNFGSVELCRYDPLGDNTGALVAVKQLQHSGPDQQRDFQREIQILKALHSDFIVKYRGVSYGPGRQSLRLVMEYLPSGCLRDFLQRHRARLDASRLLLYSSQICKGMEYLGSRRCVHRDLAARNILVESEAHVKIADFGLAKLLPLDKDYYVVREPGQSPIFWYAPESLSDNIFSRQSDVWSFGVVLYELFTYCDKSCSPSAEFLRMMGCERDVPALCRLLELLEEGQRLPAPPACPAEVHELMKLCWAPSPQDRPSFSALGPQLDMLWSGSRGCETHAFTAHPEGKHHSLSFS
Chain of AMPKα1(h) (human) (Q13131 whole entry): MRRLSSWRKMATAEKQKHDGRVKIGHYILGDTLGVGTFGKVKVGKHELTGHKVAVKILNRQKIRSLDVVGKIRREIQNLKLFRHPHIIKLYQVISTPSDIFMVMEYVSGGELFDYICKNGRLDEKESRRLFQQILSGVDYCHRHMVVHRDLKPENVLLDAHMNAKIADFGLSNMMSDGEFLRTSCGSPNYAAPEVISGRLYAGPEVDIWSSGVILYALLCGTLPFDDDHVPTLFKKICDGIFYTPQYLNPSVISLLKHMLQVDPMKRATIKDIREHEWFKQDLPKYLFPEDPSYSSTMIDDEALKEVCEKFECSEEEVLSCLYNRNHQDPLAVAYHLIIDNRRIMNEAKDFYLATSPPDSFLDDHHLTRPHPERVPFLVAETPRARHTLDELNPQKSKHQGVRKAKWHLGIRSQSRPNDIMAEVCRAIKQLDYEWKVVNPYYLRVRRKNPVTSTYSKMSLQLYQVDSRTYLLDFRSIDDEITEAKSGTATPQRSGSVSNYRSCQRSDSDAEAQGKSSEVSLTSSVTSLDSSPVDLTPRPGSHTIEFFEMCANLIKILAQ
Chain of Pim-2(h) (human) (Q9P1W9 whole entry): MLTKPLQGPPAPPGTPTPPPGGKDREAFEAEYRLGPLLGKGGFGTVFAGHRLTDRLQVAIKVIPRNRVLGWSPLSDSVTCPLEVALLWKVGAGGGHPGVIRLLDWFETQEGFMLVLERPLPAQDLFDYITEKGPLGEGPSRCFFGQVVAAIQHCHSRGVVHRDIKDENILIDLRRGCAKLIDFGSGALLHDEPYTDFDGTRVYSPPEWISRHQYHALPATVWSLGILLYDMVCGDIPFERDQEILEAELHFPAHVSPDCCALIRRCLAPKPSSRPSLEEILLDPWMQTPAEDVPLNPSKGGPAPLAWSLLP
Chain of CLK3(h) (human) (P49761 whole entry): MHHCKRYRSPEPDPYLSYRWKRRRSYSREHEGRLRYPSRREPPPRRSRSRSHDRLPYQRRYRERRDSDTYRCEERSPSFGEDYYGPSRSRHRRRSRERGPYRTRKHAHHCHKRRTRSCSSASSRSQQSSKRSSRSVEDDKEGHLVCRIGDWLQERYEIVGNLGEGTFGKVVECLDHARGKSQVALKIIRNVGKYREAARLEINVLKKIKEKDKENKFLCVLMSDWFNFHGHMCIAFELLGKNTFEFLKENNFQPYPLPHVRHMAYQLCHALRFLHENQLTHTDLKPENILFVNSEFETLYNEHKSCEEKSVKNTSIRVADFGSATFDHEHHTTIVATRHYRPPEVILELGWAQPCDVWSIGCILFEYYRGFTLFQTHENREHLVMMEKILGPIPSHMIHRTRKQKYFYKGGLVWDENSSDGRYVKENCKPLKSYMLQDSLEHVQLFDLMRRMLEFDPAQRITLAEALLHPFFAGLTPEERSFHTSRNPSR
Chain of Snk(h) (human) (Q9NYY3 whole entry): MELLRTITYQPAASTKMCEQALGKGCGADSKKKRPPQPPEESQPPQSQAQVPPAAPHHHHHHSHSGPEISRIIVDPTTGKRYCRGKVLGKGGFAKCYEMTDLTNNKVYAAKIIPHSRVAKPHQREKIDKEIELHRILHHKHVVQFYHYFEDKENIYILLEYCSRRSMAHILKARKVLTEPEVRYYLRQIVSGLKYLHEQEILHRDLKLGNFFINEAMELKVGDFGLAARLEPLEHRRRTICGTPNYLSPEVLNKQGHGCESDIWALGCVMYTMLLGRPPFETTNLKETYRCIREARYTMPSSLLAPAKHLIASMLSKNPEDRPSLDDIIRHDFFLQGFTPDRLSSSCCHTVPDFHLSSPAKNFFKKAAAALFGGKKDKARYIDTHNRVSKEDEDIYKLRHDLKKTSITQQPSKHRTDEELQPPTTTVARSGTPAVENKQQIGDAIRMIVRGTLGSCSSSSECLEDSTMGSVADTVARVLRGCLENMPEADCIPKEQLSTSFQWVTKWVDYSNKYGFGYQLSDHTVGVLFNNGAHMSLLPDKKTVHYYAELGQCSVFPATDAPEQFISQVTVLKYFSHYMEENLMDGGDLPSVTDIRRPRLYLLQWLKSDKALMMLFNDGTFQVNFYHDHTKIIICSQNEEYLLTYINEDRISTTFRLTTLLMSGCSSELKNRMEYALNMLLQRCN
Chain of HIPK3(h) (human) (Q9H422 163-562 limits assumed): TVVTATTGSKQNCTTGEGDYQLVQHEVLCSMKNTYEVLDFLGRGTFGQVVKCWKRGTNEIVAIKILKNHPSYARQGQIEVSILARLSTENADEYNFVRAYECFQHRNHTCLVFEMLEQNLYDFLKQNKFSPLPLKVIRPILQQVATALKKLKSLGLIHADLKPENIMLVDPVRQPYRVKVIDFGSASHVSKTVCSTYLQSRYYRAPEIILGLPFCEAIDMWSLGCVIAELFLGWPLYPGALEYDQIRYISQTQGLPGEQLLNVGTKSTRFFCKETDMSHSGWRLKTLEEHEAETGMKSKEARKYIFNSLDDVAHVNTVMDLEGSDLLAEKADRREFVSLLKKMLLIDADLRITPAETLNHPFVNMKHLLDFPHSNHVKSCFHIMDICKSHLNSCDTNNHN

% activity, 100 µM [1]: 2%
% activity, 100 µM [2]: 27%
% activity, 100 µM [3]: 13%
% activity, 100 µM [4]: 81%
% activity, 100 µM [5]: 65%
% activity, 100 µM [6]: 19%
% activity, 100 µM [7]: 85%
% activity, 100 µM [8]: 5%
% activity, 100 µM [9]: 3%
% activity, 100 µM [10]: 76%
% activity, 100 µM [11]: 51%
% activity, 100 µM [12]: 35%
% activity, 100 µM [13]: 33%
% activity, 100 µM [14]: 52%
% activity, 100 µM [15]: 223%
% activity, 100 µM [16]: 95%
% activity, 100 µM [17]: 122%
% activity, 100 µM [18]: 23%
% activity, 100 µM [19]: 45%
% activity, 100 µM [20]: 46%
% activity, 100 µM [21]: 10%
% activity, 100 µM [22]: 3%
Substance: MMI-0500 (peptide)
